Abundance fitness data for 40 variants are collected here from the Human Domainome abundance scans (Beltran et al. 2025).

B1: SWI/SNF-related matrix-associated actin-dependent regulator of chromatin subfamily B member 1, residues 181 to 248; numbered along this chain, Q12824 (parent)
chain: SQPEVLVPIRLDMEIDGQKLRDAFTWNMNEKLMTPEMFSEILCDDLDLNPLTFVPAIASAIRQQIESY

± gives the uncertainty stated by the source.

In the series the parent is B1. Description: abundance fitness (aPCA) (normalised: wild type 0, dead -1); higher = more abundant; growth selection in yeast, the domain comes from the species named. Conditions: Homo sapiens.
Regarding EQPEVLVPIRLDMEIDGQKLRDAFTWNMNEKLMTPEMFSEILCDDLDLNPLTFVPAIASAIRQQIESY [S1E], the abundance fitness came to 0.194 ± 0.081.
The result for AQPEVLVPIRLDMEIDGQKLRDAFTWNMNEKLMTPEMFSEILCDDLDLNPLTFVPAIASAIRQQIESY [S1A] reads -0.151 ± 0.074; that for PQPEVLVPIRLDMEIDGQKLRDAFTWNMNEKLMTPEMFSEILCDDLDLNPLTFVPAIASAIRQQIESY [S1P], -0.109 ± 0.083.
The result for VQPEVLVPIRLDMEIDGQKLRDAFTWNMNEKLMTPEMFSEILCDDLDLNPLTFVPAIASAIRQQIESY [S1V] reads -0.048 ± 0.094; that for SQPEYLVPIRLDMEIDGQKLRDAFTWNMNEKLMTPEMFSEILCDDLDLNPLTFVPAIASAIRQQIESY [V5Y], -0.096 ± 0.14.
As for SQPEPLVPIRLDMEIDGQKLRDAFTWNMNEKLMTPEMFSEILCDDLDLNPLTFVPAIASAIRQQIESY [V5P], the figure is -0.366 ± 0.2.
SQPEWLVPIRLDMEIDGQKLRDAFTWNMNEKLMTPEMFSEILCDDLDLNPLTFVPAIASAIRQQIESY [V5W]: the abundance fitness is -0.312 ± 0.37.
The result for SQPEHLVPIRLDMEIDGQKLRDAFTWNMNEKLMTPEMFSEILCDDLDLNPLTFVPAIASAIRQQIESY [V5H] reads 0.505 ± 0.19; that for SQPETLVPIRLDMEIDGQKLRDAFTWNMNEKLMTPEMFSEILCDDLDLNPLTFVPAIASAIRQQIESY [V5T], 0.213 ± 0.13; that for SQPEMLVPIRLDMEIDGQKLRDAFTWNMNEKLMTPEMFSEILCDDLDLNPLTFVPAIASAIRQQIESY [V5M], -0.107 ± 0.28.
As for SQPEGLVPIRLDMEIDGQKLRDAFTWNMNEKLMTPEMFSEILCDDLDLNPLTFVPAIASAIRQQIESY [V5G], the abundance fitness is -0.302 ± 0.1.
As for SQPELLVPIRLDMEIDGQKLRDAFTWNMNEKLMTPEMFSEILCDDLDLNPLTFVPAIASAIRQQIESY [V5L], the figure is -0.009 ± 0.08; as for SQPEQLVPIRLDMEIDGQKLRDAFTWNMNEKLMTPEMFSEILCDDLDLNPLTFVPAIASAIRQQIESY [V5Q], 0.184 ± 0.11; as for SQPEFLVPIRLDMEIDGQKLRDAFTWNMNEKLMTPEMFSEILCDDLDLNPLTFVPAIASAIRQQIESY [V5F], -0.079 ± 0.17.
Turning to SQPESLVPIRLDMEIDGQKLRDAFTWNMNEKLMTPEMFSEILCDDLDLNPLTFVPAIASAIRQQIESY [V5S], the abundance fitness was -0.174 ± 0.11.
As for SQPEKLVPIRLDMEIDGQKLRDAFTWNMNEKLMTPEMFSEILCDDLDLNPLTFVPAIASAIRQQIESY [V5K], the figure is -0.051 ± 0.31; as for SQPEELVPIRLDMEIDGQKLRDAFTWNMNEKLMTPEMFSEILCDDLDLNPLTFVPAIASAIRQQIESY [V5E], -0.103 ± 0.15; as for SQPECLVPIRLDMEIDGQKLRDAFTWNMNEKLMTPEMFSEILCDDLDLNPLTFVPAIASAIRQQIESY [V5C], 0.116 ± 0.077.
Take SQPEILVPIRLDMEIDGQKLRDAFTWNMNEKLMTPEMFSEILCDDLDLNPLTFVPAIASAIRQQIESY [V5I]: the abundance fitness was -0.438 ± 0.23.
The result for SQPEDLVPIRLDMEIDGQKLRDAFTWNMNEKLMTPEMFSEILCDDLDLNPLTFVPAIASAIRQQIESY [V5D] reads 0.045 ± 0.095; that for SQPEALVPIRLDMEIDGQKLRDAFTWNMNEKLMTPEMFSEILCDDLDLNPLTFVPAIASAIRQQIESY [V5A], -0.086 ± 0.26.
The result for SQPERLVPIRLDMEIDGQKLRDAFTWNMNEKLMTPEMFSEILCDDLDLNPLTFVPAIASAIRQQIESY [V5R] reads -0.205 ± 0.053; that for SFPEVLVPIRLDMEIDGQKLRDAFTWNMNEKLMTPEMFSEILCDDLDLNPLTFVPAIASAIRQQIESY [Q2F], 0.392 ± 0.24.
The result for SHPEVLVPIRLDMEIDGQKLRDAFTWNMNEKLMTPEMFSEILCDDLDLNPLTFVPAIASAIRQQIESY [Q2H] reads -0.266 ± 0.16; that for SPPEVLVPIRLDMEIDGQKLRDAFTWNMNEKLMTPEMFSEILCDDLDLNPLTFVPAIASAIRQQIESY [Q2P], -0.079 ± 0.41; that for SQPQVLVPIRLDMEIDGQKLRDAFTWNMNEKLMTPEMFSEILCDDLDLNPLTFVPAIASAIRQQIESY [E4Q], -0.182 ± 0.075.
SQPVVLVPIRLDMEIDGQKLRDAFTWNMNEKLMTPEMFSEILCDDLDLNPLTFVPAIASAIRQQIESY [E4V]: the abundance fitness came out at 0.047 ± 0.12.
The result for SQPLVLVPIRLDMEIDGQKLRDAFTWNMNEKLMTPEMFSEILCDDLDLNPLTFVPAIASAIRQQIESY [E4L] reads -0.292 ± 0.056.
SQPAVLVPIRLDMEIDGQKLRDAFTWNMNEKLMTPEMFSEILCDDLDLNPLTFVPAIASAIRQQIESY [E4A]: the abundance fitness is -0.166 ± 0.062.
The result for SQPFVLVPIRLDMEIDGQKLRDAFTWNMNEKLMTPEMFSEILCDDLDLNPLTFVPAIASAIRQQIESY [E4F] reads -0.294 ± 0.098.
As for SQPTVLVPIRLDMEIDGQKLRDAFTWNMNEKLMTPEMFSEILCDDLDLNPLTFVPAIASAIRQQIESY [E4T], the figure is -0.281 ± 0.11.
Regarding SQPIVLVPIRLDMEIDGQKLRDAFTWNMNEKLMTPEMFSEILCDDLDLNPLTFVPAIASAIRQQIESY [E4I], the abundance fitness was -0.495 ± 0.17.
As for SQPSVLVPIRLDMEIDGQKLRDAFTWNMNEKLMTPEMFSEILCDDLDLNPLTFVPAIASAIRQQIESY [E4S], the figure is -0.331 ± 0.062; as for SQPWVLVPIRLDMEIDGQKLRDAFTWNMNEKLMTPEMFSEILCDDLDLNPLTFVPAIASAIRQQIESY [E4W], -0.599 ± 0.1; as for SQPGVLVPIRLDMEIDGQKLRDAFTWNMNEKLMTPEMFSEILCDDLDLNPLTFVPAIASAIRQQIESY [E4G], -0.354 ± 0.17.
The result for SQPRVLVPIRLDMEIDGQKLRDAFTWNMNEKLMTPEMFSEILCDDLDLNPLTFVPAIASAIRQQIESY [E4R] reads -0.234 ± 0.041.
The result for SQPDVLVPIRLDMEIDGQKLRDAFTWNMNEKLMTPEMFSEILCDDLDLNPLTFVPAIASAIRQQIESY [E4D] reads -0.031 ± 0.088; that for SQPPVLVPIRLDMEIDGQKLRDAFTWNMNEKLMTPEMFSEILCDDLDLNPLTFVPAIASAIRQQIESY [E4P], -0.024 ± 0.062; that for SQPCVLVPIRLDMEIDGQKLRDAFTWNMNEKLMTPEMFSEILCDDLDLNPLTFVPAIASAIRQQIESY [E4C], -0.32 ± 0.063.
In the case of SQPMVLVPIRLDMEIDGQKLRDAFTWNMNEKLMTPEMFSEILCDDLDLNPLTFVPAIASAIRQQIESY [E4M], the abundance fitness was -0.201 ± 0.074.
